The text below walks through data of article PMC8299537 (Nature, 2021).

This assay concerns the target T1, PYD and CARD-deleted NLRP1 (NLRP1ΔΔ), molecule A of the ternary complex (human, UniProt Q9C000-1 148-1364).
T1 sequence (looked up): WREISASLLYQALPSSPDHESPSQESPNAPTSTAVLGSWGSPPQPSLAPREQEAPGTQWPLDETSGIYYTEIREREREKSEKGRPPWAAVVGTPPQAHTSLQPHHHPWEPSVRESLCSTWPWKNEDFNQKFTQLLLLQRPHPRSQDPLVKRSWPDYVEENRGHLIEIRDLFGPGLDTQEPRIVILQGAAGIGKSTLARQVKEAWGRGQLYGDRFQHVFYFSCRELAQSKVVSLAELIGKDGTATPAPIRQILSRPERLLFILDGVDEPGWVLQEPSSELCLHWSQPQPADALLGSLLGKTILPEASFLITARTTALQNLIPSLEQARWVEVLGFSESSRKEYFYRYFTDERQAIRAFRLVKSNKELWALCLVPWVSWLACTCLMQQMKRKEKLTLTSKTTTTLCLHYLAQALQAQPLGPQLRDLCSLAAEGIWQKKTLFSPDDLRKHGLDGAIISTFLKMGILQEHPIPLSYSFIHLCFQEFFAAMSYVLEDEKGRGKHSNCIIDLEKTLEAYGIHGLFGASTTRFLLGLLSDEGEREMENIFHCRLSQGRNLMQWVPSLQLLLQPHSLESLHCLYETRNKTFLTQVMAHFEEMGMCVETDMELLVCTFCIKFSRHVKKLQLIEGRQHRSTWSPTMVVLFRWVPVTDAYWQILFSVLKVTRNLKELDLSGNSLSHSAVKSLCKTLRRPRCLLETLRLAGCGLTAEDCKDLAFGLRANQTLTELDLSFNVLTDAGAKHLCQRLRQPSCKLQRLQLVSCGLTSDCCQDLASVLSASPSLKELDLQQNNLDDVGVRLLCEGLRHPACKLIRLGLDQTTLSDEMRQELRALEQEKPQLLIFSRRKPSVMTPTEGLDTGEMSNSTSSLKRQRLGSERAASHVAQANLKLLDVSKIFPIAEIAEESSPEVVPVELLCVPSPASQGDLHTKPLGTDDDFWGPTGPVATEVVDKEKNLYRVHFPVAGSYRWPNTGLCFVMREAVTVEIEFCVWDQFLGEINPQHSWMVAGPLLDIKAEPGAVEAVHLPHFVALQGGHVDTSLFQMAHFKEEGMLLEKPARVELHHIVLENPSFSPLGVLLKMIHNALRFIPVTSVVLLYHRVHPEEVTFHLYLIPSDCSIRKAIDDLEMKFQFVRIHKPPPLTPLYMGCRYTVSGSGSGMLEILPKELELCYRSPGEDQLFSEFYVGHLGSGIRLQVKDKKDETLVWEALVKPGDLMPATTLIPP
Kind of assay: cryo-EM structure.

B1: NLRP1-CT derived from NLRP1ΔΔ (UPA subdomain only), molecule B of the ternary complex (domain or fragment, human, UniProt Q9C000-1 1213-1364, looked up)
chain: SPLGVLLKMIHNALRFIPVTSVVLLYHRVHPEEVTFHLYLIPSDCSIRKAIDDLEMKFQFVRIHKPPPLTPLYMGCRYTVSGSGSGMLEILPKELELCYRSPGEDQLFSEFYVGHLGSGIRLQVKDKKDETLVWEALVKPGDLMPATTLIPP
In the case of B1, the binding result is given as “binds”.

B2: DPP9, short isoform (His-TEV-DPP9), co-purified with NLRP1ΔΔ (enzyme, human)
chain: MATTGTPTADRGDAAATDDPAARFQVQKHSWDGLRSIIHGSRKYSGLIVNKAPHDFQFVQKTDESGPHSHRLYYLGMPYGSRENSLLYSEIPKKVRKEALLLLSWKQMLDHFQATPHHGVYSREEELLRERKRLGVFGITSYDFHSESGLFLFQASNSLFHCRDGGKNGFMVSPMKPLEIKTQCSGPRMDPKICPADPAFFSFINNSDLWVANIETGEERRLTFCHQGLSNVLDDPKSAGVATFVIQEEFDRFTGYWWCPTASWEGSEGLKTLRILYEEVDESEVEVIHVPSPALEERKTDSYRYPRTGSKNPKIALKLAEFQTDSQGKIVSTQEKELVQPFSSLFPKVEYIARAGWTRDGKYAWAMFLDRPQQWLQLVLLPPALFIPSTENEEQRLASARAVPRNVQPYVVYEEVTNVWINVHDIFYPFPQSEGEDELCFLRANECKTGFCHLYKVTAVLKSQGYDWSEPFSPGEDEFKCPIKEEIALTSGEWEVLARHGSKIWVNEETKLVYFQGTKDTPLEHHLYVVSYEAAGEIVRLTTPGFSHSCSMSQNFDMFVSHYSSVSTPPCVHVYKLSGPDDDPLHKQPRFWASMMEAASCPPDYVPPEIFHFHTRSDVRLYGMIYKPHALQPGKKHPTVLFVYGGPQVQLVNNSFKGIKYLRLNTLASLGYAVVVIDGRGSCQRGLRFEGALKNQMGQVEIEDQVEGLQFVAEKYGFIDLSRVAIHGWSYGGFLSLMGLIHKPQVFKVAIAGAPVTVWMAYDTGYTERYMDVPENNQHGYEAGSVALHVEKLPNEPNRLLILHGFLDENVHFFHTNFLVSQLIRAGKPYQLQIYPNERHSIRCPESGEHYEVTLLHFLQEYL
As for B2, the binding result is on record as “binds”.
